US20150165065A1 (AVIDBIOTICS, published 2015)
Residue numbers refer to the chain shown, from its start.

Tests used:
[1] = biological target: T1, integrin αVβ3 (UniProt P06756 31-992; P05106 27-718); experiment: phage ELISA, coated integrin, anti-M13-HRP
T1 construct: Coated on the ELISA plate
Procedure: (§1) The phage vectors were independently transformed into NEBαF′tet competent E. coli cells. Phages produced by the transformed cells were tittered and their concentrations adjusted by dilution to 10¹³ per ml. The ability of the soluble MICA molecules in each of the phage preparations was assayed by an ELISA using the intended target proteins, integrin αVβ3 or αVβ5, as capture agents on the ELISA plate. After the respective integrins were adhered to the bottoms of the wells of the ELISA plate, the wells were washed and blocked, as well known in the field. Each sample (100 μl) of phage preparation was added to wells containing αVβ3 or αVβ5, incubated and washed. The phages captured by the integrins were detected by HRP-conjugated antibody to the M13 phage coat developed with Ultra TMB-ELISA substrate and the optical densities read.

[2] = biological target: T2, integrin αVβ5 (UniProt P06756 31-992; P18084 24-719); experiment: phage ELISA, coated integrin, anti-M13-HRP
T2 construct: Coated on the ELISA plate
T2 sequence (P06756 31-992, chain 1 of 2): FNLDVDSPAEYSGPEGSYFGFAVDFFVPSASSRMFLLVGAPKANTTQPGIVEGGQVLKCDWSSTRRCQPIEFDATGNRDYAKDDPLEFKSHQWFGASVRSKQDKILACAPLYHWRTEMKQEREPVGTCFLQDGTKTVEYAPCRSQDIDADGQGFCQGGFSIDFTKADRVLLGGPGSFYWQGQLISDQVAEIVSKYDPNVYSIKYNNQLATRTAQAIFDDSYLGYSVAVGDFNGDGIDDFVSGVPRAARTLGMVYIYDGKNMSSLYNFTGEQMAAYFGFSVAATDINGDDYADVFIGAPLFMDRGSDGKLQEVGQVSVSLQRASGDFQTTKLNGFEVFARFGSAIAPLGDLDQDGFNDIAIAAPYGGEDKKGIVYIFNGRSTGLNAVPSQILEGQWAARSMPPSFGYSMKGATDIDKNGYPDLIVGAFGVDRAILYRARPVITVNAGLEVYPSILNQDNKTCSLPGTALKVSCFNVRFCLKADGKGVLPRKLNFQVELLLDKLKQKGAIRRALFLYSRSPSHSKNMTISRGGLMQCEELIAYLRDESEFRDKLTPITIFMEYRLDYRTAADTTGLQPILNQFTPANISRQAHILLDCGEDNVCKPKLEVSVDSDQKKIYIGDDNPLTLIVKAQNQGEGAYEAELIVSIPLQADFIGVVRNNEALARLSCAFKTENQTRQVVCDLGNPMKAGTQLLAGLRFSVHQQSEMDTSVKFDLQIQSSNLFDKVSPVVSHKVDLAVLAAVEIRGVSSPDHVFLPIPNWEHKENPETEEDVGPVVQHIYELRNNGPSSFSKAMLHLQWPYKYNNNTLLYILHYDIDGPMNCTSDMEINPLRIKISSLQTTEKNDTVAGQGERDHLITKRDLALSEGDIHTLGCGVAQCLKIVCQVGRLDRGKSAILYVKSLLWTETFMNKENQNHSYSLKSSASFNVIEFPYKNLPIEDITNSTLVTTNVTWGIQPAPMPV
T2 sequence (P18084 24-719, chain 2 of 2): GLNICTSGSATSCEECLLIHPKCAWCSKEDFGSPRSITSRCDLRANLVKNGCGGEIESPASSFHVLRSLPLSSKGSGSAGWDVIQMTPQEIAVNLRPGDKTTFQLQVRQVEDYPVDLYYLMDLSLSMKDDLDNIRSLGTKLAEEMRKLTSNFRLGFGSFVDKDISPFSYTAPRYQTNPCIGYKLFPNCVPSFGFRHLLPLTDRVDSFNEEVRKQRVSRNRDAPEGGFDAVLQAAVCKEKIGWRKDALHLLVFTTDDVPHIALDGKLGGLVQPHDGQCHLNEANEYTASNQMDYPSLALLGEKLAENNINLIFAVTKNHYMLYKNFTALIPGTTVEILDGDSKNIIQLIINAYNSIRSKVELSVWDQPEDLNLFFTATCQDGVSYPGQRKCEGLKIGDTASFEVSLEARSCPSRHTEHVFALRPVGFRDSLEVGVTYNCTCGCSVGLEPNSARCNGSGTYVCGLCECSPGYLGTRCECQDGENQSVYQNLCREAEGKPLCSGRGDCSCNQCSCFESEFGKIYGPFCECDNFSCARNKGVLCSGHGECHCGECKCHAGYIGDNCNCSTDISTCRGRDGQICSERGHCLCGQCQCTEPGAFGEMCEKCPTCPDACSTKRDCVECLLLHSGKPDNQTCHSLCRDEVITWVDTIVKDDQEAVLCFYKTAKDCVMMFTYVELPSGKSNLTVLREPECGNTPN
Procedure: as §1

[3] = biological target: T1, integrin αVβ3; experiment: phage ELISA, coated integrin, anti-M13-HRP; remark: listed apart in the source
Procedure: (§2) The ELISA assays of the integrin target-binding of M13 phages displaying α3 domains with binding peptide inserts grafted into more than one loop were performed as follows. After the respective integrins were adhered to the bottoms of the wells of the ELISA plate, the wells were washed and blocked. Each sample (100 μl) of phage preparation was added to wells containing αVβ3 or αVβ5, incubated and washed. The phages captured by the integrins were detected by HRP-conjugated antibody to the M13 phage coat developed with Ultra TMB-ELISA substrate and the optical densities read.

[4] = biological target: T2, integrin αVβ5; experiment: phage ELISA, coated integrin, anti-M13-HRP; remark: listed apart in the source
Procedure: as §2

[5] = biological target: the targeted integrin; experiment: cell-based or functional assay
[6] = biological target: T1, integrin αVβ3; experiment: ELISA, coated integrin, anti-MICA-HRP
Procedure: (§3) ELISA assays of the integrin target-binding of soluble MICA molecules generated from pKK128-131 were performed as follows. After the respective integrins were adhered to the bottoms of the wells of the ELISA plate, the wells were washed and blocked. Each sample (100 μl) of culture supernatant was added to wells containing αVβ3 or αVβ5, incubated and washed. The soluble MICA molecules captured by the integrins were detected by HRP-conjugated antibody to human MICA developed with Ultra TMB-ELISA substrate and the optical densities read. The quantity of soluble MICA in each sample was determined by the MICA-specific ELISA.

[7] = biological target: T2, integrin αVβ5; experiment: ELISA, coated integrin, anti-MICA-HRP
Procedure: as §3

T1 sequence (P06756 31-992, chain 1 of 2): as the sequence (P06756 31-992, chain 1 of 2) above
T1 sequence (P05106 27-718, chain 2 of 2): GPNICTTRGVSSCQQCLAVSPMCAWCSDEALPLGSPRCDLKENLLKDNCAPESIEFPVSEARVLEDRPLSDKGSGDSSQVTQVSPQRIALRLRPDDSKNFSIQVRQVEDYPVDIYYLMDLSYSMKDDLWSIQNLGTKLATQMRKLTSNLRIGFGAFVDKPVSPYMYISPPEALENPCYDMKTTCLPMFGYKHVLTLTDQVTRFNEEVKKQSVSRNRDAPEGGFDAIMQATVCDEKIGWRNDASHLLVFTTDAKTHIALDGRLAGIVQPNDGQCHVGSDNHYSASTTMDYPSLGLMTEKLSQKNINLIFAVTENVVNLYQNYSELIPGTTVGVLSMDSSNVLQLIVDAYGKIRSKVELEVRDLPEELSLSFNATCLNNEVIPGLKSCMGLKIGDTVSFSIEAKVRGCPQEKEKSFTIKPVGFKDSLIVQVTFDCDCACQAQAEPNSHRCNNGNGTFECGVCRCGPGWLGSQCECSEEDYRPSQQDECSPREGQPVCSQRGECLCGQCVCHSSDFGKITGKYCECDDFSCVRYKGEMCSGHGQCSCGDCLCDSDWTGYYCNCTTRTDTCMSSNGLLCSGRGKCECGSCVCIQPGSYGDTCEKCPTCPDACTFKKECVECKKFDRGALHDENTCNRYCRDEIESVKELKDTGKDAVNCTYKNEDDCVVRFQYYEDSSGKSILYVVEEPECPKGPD

B1: M13 phage pKK101 displaying MICA α3 domain with loop 1 insert 3.3sp (designed binder)
chain: TVPPMVNVTSGGSGGGSRVPRGDSDLTSGGSGGGVTCRASGFYPWNITLSWRQDGVSLSHDTQQWGDVLPDGNGTYQTWVATRICQGEEQRFTCYMEHSGNHSTHPVPSGK
notes: also called 1-3.3sp; not shown: C-terminal portion of M13 gene III protein, fused at codon position 198
B1 was tested, and the αvβ3 signal [1] was 1.49 OD and the αvβ5 signal [2] was 1.23 OD.

B2: M13 phage pKK103 displaying MICA α3 domain with loop 1 insert 5.3sp (designed binder)
chain: B1 chain with R18H, V19L, P20A, S24D, D25L, L26T, T27Y
notes: also called 1-5.3sp; not shown: C-terminal portion of M13 gene III protein, fused at codon position 198
In the case of B2, the αvβ3 signal [1] is reported as 0.688 OD, the αvβ5 signal [2] is reported as 0.491 OD and the αvβ3 signal [3] is reported as 0.587 OD. It also gave a αvβ5 signal [4] of 0.814 OD.

B3: M13 phage pKK102 displaying MICA α3 domain with loop 1 insert 5.1sp (designed binder)
chain: B1 chain with R18V, V19T, P20R, R21G, G22D, D23T, S24F, D25T, L26Q, T27S
notes: also called 1-5.1sp; not shown: C-terminal portion of M13 gene III protein, fused at codon position 198
Binder B3 has a αvβ3 signal [1] of 1.02 OD, a αvβ5 signal [2] of 0.771 OD and a αvβ3 signal [3] of 1.45 OD. For the same binder, the αvβ5 signal [4] was 1.5 OD.

B4: M13 phage pKK136 displaying MICA α3 domain with loop 1 insert 5.1sp and loop 3 insert 3.2sp (designed binder)
chain: TVPPMVNVTSGGSGGGSVTRGDTFTQSSGGSGGGVTCRASGFYPWNITLSWRQDGVSLSHDTQQWGDVLPDGNGTYQTWVATRISGGSGGGSTSRGDHPRTQSGGSGGGCYMEHSGNHSTHPVPSGK
notes: also called 1-5.1sp/3-3.2sp; not shown: C-terminal portion of M13 gene III protein, fused at codon position 198
B4 was tested, and the αvβ3 signal [3] was 2.46 OD and the αvβ5 signal [4] was 4.28 OD.

B5: M13 phage pKK139 displaying MICA α3 domain with loop 1 insert 5.1sp and loop 3 insert 5.1spNH (designed binder)
chain: B4 chain with T93V, S94T, H98T, P99F, R100T, T101Q, Q102S
notes: also called 1-5.1sp/3-5.1spNH; not shown: C-terminal portion of M13 gene III protein, fused at codon position 198
B5 was tested, and the αvβ3 signal [3] was 2.48 OD and the αvβ5 signal [4] was 5.36 OD.

B6: M13 phage pKK138 displaying MICA α3 domain with loop 1 insert 5.1sp and loop 3 insert 5.3sp (designed binder)
chain: B4 chain with T93H, S94L, R95A, G96R, D97G, H98D, P99D, R100L, Q102Y
notes: also called 1-5.1sp/3-5.3sp; not shown: C-terminal portion of M13 gene III protein, fused at codon position 198
B6 showed a αvβ3 signal [3] of 0.886 OD and a αvβ5 signal [4] of 2.75 OD.

B7: soluble MICA generated from pKK131 (loop 1 extended 5.1sp, loop 3 extended 5.1spNH) (designed binder)
chain: HHHHHHEPHSLRYNLTVLSWDGSVQSGFLTEVHLDGQPFLRCDRQKCRAKPQGQWAEDVLGNKTWDRETRDLTGNGKDLRMTLAHIKDQKEGLHSLQEIRVCEIHEDNSTRSSQHFYYDGELFLSQNLETEEWTMPQSSRAQTLAMNVRNFLKEDAMKTKTHYHAMHADCLQELRRYLKSGVVLRRTVPPMVNVTSGGSGGGSVTRGDTFTQSSGGSGGGVTCRASGFYPWNITLSWRQDGVSLSHDTQQWGDVLPDGNGTYQTWVATRISGGSGGGSVTRGDTFTQSSGGSGGGCYMEHSGNHSTHPVPSGK
Work on B7 yielded a green fluorescent signal from live MCF cells; 64 pg targeted MICA, NK 5:1 [5] of 5180 fluorescence, a green fluorescent signal from live MCF cells; 64 pg targeted MICA, NK 10:1 [5] of 3700 fluorescence and a green fluorescent signal from live MCF cells; 64 pg targeted MICA, no NK cells [5] of 5030 fluorescence. The green fluorescent signal from live MCF cells; 128 pg targeted MICA, NK 5:1 [5] was 3460 fluorescence, the green fluorescent signal from live MCF cells; 128 pg targeted MICA, NK 10:1 [5] was 2190 fluorescence and the red fluorescent signal from (dead) MCF cells; 64 pg targeted MICA, NK 5:1 [5] was 27 fluorescence. It also gave a red fluorescent signal from (dead) MCF cells; 64 pg targeted MICA, NK 10:1 [5] of 31 fluorescence, a red fluorescent signal from (dead) MCF cells; 64 pg targeted MICA, no NK cells [5] of 19.9 fluorescence and a red fluorescent signal from (dead) MCF cells; 128 pg targeted MICA, NK 5:1 [5] of 25.6 fluorescence. For the same binder, the red fluorescent signal from (dead) MCF cells; 128 pg targeted MICA, NK 10:1 [5] was 41 fluorescence.

B8: soluble MICA generated from pKK128 (loop 1 extended 5.1sp, loop 3 extended 3.2sp) (designed binder)
chain: B7 chain with V279T, T280S, T284H, F285P, T286R, Q287T, S288Q
notes: From pKK115 (from pKK46: His6, Glu125); secreted by 293T cells; also called 1-5.1sp/3-3.2sp
B8 was tested, and the αvβ3 signal [6] was 0.811 OD, the αvβ3 signal/ng [6] was 22.9 signal/ng MICA and the αvβ5 signal [7] was 1 OD. It also gave a αvβ5 signal/ng [7] of 28.3 signal/ng MICA.

B9: soluble MICA generated from pKK130 (loop 1 extended 5.1sp, loop 3 extended 5.3sp) (designed binder)
chain: B7 chain with V279H, T280L, R281A, G282R, D283G, T284D, F285D, T286L, Q287T, S288Y
notes: From pKK115 (from pKK46: His6, Glu125); secreted by 293T cells; also called 1-5.1sp/3-5.3sp
With B9 the αvβ3 signal [6] was 0.606 OD, the αvβ3 signal/ng [6] was 19.6 signal/ng MICA and the αvβ5 signal [7] was 0.832 OD. The αvβ5 signal/ng [7] was 26.9 signal/ng MICA.
